Results reported in patent publication US20080118529.

T1: mouse non-amyloidogenic IAPP (20-29) core
T1 chain: SNNLGPVLPP

T2: amyloid fragment of transthyretin
T2 chain: YTIAALLSPYS

T3: laminin α1-chain (2097-2108) amyloid core peptide
T3 chain: AASIKVAVSADR

T4: amyloid fibrin peptide FP13 K157G, P02671
T4 chain: KVQHIQLLQGNVR

T5: non-amyloid fragment FP10 of human fibrin α-chain (148-157)
T5 chain: KRLEVDIDIK

T6: β2-glycoprotein I purified from fresh human plasma, P02749
T6 chain: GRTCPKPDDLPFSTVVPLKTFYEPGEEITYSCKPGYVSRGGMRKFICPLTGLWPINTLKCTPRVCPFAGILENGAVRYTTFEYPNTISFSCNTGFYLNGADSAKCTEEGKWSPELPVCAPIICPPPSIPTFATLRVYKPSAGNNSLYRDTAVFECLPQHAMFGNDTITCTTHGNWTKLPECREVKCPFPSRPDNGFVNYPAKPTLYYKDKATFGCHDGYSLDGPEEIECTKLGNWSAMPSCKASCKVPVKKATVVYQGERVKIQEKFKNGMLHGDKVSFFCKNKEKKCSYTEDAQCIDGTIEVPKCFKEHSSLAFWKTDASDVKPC

T7: Ovalbumin (chicken egg albumin, OVA, Sigma A5503), carefully dissolved, P01012
T7 chain: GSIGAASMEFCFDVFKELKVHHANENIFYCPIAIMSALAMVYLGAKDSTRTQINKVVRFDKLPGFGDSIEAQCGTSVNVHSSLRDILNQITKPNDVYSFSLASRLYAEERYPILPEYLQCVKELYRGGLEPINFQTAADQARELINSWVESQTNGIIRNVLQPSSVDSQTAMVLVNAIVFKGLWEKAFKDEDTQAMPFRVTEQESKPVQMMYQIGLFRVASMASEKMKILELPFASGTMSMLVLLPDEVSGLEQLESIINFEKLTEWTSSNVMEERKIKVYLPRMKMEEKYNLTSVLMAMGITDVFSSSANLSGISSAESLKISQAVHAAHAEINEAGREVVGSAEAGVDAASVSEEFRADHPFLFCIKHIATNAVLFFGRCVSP

T8: Amyloid-like misfolded OVA (DOVA), obtained by cyclic thermal misfolding, P01012
T8 chain: T7 chain

T9: recombinant human β2-glycoprotein I (made in insect cells), P02749
T9 chain: T6 chain

T10: human β2-Glycoprotein I pre-incubated with cardiolipin vesicles (CL-β2gpi), P02749
T10 chain: T6 chain

B1: human factor XII from plasma (Calbiochem, #233490) (protein)
chain: IPPWEAPKEHKYKAEEHTVVLTVTGEPCHFPFQYHRQLYHKCTHKGRPGPQPWCATTPNFDQDQRWGYCLEPKKVKDHCSKHSPCQKGGTCVNMPSGPHCLCPQHLTGNHCQKEKCFEPQLLRFFHKNEIWYRTEQAAVARCQCKGPDAHCQRLASQACRTNPCLHGGRCLEVEGHRLCHCPVGYTGAFCDVDTKASCYDGRGLSYRGLARTTLSGAPCQPWASEATYRNVTAEQARNWGLGGHAFCRNPDNDIRPWCFVLNRDRLSWEYCDLAQCQTPTQAAPPTPVSPRLHVPLMPAQPAPPKPQPTTRTPPQSQTPGALPAKREQPPSLTRNGPLSCGQRLRKSLSSMTRVVGGLVALRGAHPYIAALYWGHSFCAGSLIAPCWVLTAAHCLQDRPAPEDLTVVLGQERRNHSCEPCQTLAVRSYRLHEAFSPVSYQHDLALLRLQEDADGSCALLSPYVQPVCLPSGAARPSETTLCQVAGWGHQFEGAEEYASFLQEAQVPFLSLERCSAPDVHGSSILPGMLCAGFLEGGTDACQGDSGGPLVCEDQAAERRLTLQGIISWGSGCGDRNKPGVYTDVAYYLAWIREHTVS
B2: Tissue-type plasminogen activator (tPA, Actilyse, Boehringer-Ingelheim) (protein)
chain: SYQVICRDEKTQMIYQQHQSWLRPVLRSNRVEYCWCNSGRAQCHSVPVKSCSEPRCFNGGTCQQALYFSDFVCQCPEGFAGKCCEIDTRATCYEDQGISYRGTWSTAESGAECTNWNSSALAQKPYSGRRPDAIRLGLGNHNYCRNPDRDSKPWCYVFKAGKYSSEFCSTPACSEGNSDCYFGNGSAYRGTHSLTESGASCLPWNSMILIGKVYTAQNPSAQALGLGKHNYCRNPDGDAKPWCHVLKNRRLTWEYCDVPSCSTCGLRQYSQPQFRIKGGLFADIASHPWQAAIFAKHRRSPGERFLCGGILISSCWILSAAHCFQERFPPHHLTVILGRTYRVVPGEEEQKFEVEKYIVHKEFDDDTYDNDIALLQLKSDSSRCAQESSVVRTVCLPPADLQLPDWTECELSGYGKHEALSPFYSERLKEAHVRLYPSSRCTSQHLLNRTVTDNMLCAGDTRSGGPQANLHDACQGDSGGPLVCLNDGRMTLVGIISWGLGCGQKDVPGVYTKVTNYLDWIRDNMRP

Assays:
[1] = molecular target: T1, mouse non-amyloidogenic IAPP (20-29) …
[2] = molecular target: T2, amyloid fragment of transthyretin
[3] = molecular target: T3, laminin α1-chain (2097-2108) amyloid …
[4] = molecular target: T4, amyloid fibrin peptide FP13 K157G, …
[5] = molecular target: recombinant human collagen XVIII fragment endostatin (Entremed, Inc), P39060
recombinant human collagen XVIII fragment endostatin (Entremed, Inc), P39060, sequence (P39060 whole entry, looked up, the tested form may be a part): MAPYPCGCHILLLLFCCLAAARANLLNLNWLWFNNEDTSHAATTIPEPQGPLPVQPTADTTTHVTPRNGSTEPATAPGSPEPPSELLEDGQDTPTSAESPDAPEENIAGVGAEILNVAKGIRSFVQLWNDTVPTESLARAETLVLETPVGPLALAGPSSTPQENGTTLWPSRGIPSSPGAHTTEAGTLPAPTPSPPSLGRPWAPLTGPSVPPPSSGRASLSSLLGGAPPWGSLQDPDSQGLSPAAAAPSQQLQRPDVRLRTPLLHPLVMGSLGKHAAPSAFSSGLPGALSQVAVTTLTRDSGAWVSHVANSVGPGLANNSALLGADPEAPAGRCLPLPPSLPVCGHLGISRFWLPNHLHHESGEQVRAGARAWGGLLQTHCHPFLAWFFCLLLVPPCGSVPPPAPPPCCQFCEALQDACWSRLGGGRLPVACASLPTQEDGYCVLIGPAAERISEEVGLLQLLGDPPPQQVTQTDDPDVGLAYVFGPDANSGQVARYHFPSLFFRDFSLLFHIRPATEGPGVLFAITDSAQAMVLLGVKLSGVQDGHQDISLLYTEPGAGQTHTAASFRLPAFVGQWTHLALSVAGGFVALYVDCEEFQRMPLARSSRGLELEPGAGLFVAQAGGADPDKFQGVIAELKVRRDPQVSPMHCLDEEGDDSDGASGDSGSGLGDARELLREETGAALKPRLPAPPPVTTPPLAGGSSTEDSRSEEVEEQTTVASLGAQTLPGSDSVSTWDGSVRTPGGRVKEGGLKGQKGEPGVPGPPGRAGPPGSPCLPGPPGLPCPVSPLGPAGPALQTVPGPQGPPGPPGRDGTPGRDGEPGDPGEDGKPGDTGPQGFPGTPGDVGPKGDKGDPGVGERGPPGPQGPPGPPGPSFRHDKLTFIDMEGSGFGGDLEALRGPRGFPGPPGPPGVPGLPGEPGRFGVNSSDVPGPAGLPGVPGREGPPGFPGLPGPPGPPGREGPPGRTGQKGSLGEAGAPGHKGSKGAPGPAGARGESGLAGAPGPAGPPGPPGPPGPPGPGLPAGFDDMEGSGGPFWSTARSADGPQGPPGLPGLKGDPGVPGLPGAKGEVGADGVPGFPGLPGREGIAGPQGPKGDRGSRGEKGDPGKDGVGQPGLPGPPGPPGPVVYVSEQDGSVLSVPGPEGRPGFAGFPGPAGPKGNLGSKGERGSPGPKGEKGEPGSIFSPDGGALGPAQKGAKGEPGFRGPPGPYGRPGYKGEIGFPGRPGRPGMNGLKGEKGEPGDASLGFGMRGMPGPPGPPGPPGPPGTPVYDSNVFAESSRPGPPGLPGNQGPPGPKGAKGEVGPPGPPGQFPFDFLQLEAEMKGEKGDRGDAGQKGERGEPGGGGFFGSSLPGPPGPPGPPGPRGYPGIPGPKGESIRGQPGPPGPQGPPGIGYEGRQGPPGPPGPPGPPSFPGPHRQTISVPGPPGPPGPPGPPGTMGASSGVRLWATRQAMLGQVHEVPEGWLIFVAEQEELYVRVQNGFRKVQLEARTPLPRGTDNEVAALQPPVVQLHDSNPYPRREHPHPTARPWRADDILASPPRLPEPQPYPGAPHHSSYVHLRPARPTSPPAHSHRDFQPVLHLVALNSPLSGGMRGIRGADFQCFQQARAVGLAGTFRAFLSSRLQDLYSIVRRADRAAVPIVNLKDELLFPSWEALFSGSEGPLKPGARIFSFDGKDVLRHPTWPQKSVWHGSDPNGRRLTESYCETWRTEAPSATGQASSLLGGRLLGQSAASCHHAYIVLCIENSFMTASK

[6] = molecular target: Glycated haemoglobin (Hb-AGE)
[7] = molecular target: albumin (ICN, 160069), P02769
albumin (ICN, 160069), P02769, sequence (P02769 25-607): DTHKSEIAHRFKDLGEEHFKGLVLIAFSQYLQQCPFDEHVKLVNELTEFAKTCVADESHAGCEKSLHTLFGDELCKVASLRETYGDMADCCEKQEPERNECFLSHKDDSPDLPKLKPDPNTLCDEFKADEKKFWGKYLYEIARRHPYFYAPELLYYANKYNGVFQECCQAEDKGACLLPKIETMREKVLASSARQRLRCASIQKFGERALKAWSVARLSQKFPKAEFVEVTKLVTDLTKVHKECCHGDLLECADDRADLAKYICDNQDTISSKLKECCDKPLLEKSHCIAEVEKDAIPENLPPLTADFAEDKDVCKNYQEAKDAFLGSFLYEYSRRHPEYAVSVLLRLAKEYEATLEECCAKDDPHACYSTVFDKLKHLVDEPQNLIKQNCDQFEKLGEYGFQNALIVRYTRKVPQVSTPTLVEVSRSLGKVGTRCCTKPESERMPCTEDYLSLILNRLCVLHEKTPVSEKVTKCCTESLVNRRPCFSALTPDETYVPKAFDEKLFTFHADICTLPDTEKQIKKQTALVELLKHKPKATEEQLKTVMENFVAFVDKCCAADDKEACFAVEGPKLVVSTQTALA

[8] = molecular target: T5, non-amyloid fragment FP10 of human …
[9] = molecular target: T6, β2-glycoprotein I purified from fresh …
[10] = molecular target: T7, Ovalbumin (chicken egg albumin, OVA, …)
[11] = molecular target: heat/acid-denatured human glucagon (Glucagen, Novo Nordisk), P01275
heat/acid-denatured human glucagon (Glucagen, Novo Nordisk), P01275, sequence (P01275 53-81): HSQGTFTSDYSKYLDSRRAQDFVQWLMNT

[12] = molecular target: native human glucagon (freshly dissolved), P01275
[13] = molecular target: T8, Amyloid-like misfolded OVA (DOVA), …
[14] = molecular target: T9, recombinant human β2-glycoprotein I …
[15] = molecular target: Native murine serum albumin (nMSA, #126674, Calbiochem), P07724
Native murine serum albumin (nMSA, #126674, Calbiochem), P07724, sequence (P07724 25-608): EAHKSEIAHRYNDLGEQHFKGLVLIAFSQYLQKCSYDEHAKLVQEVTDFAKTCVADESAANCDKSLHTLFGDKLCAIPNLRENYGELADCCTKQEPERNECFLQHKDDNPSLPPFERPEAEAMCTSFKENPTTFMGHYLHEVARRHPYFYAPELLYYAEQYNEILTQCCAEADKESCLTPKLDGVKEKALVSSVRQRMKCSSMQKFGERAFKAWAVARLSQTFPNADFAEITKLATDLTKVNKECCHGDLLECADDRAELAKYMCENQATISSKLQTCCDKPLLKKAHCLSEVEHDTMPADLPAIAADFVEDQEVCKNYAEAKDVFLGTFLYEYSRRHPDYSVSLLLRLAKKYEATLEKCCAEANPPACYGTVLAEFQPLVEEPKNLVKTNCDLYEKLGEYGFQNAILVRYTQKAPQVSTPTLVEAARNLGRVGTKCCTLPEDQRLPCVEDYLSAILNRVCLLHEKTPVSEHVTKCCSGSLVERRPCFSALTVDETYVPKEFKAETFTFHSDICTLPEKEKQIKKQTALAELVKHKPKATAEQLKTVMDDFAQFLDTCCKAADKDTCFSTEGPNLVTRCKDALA

[16] = molecular target: T10, human β2-Glycoprotein I pre-incubated …

Protein | activation of factor XII, detected by the conversion of Chromozym-PK [1] | activation of factor XII, detected by the conversion of Chromozym-PK [2] | activation of factor XII, detected by the conversion of Chromozym-PK [3] | auto-activation of purified factor XII, substrate S-2222 [4] | factor XII and subsequent prekallikrein activity (Chromozym-PK) [5] | auto-activation of purified factor XII, substrate S-2222 [6] | factor XII and subsequent prekallikrein activity (Chromozym-PK) [7] | activation of factor XII, detected by the conversion of Chromozym-PK [8] | tPA-mediated conversion of Plg to plasmin (substrate S-2251) [9] | tPA/plasminogen activation assay [10] | Plg-activation assay [11] | Plg-activation assay [12] | tPA/plasminogen activation assay [13] | tPA-mediated conversion of Plg to plasmin (substrate S-2251) [14] | Plg-activation assay [15] | chromogenic tPA/plasminogen activation assay with a plasmin substrate [16]
B1 | non-amyloid controls fibrin fragment FP10 and non-amyloid murine islet amyloid polypeptide mIAPP do not activate factor XII | cross-β structure conformation rich peptides laminin (LAM12) and transthyretin (TTR11) stimulate factor XII activation, to a similar extent as kaolin | cross-β structure conformation rich peptides laminin (LAM12) and transthyretin (TTR11) stimulate factor XII activation, to a similar extent as kaolin | All three amyloid-like aggregates are able to induce factor XII auto-activation. FP13 K157G and Hb-AGE have a potency to induce auto-activation that is similar to the established surface activator DXS500k | Neither albumin or endostatin alone, nor kaolin or DXS500k alone are efficient activators of factor XII, whereas combinations of adjuvant and protein cofactor results in factor XII and subsequent prekallikrein activity | All three amyloid-like aggregates are able to induce factor XII auto-activation. FP13 K157G and Hb-AGE have a potency to induce auto-activation that is similar to the established surface activator DXS500k | Neither albumin or endostatin alone, nor kaolin or DXS500k alone are efficient activators of factor XII, whereas combinations of adjuvant and protein cofactor results in factor XII and subsequent prekallikrein activity | non-amyloid controls fibrin fragment FP10 and non-amyloid murine islet amyloid polypeptide mIAPP do not activate factor XII | – | – | – | – | – | – | – | –
B2 | – | – | – | – | – | – | – | – | Recombinant β2GPI, but not β2GPI purified from fresh plasma stimulate tPA-mediated conversion of Plg to plasmin | OVA displays characteristics that are a hallmark for the presence of at least a fraction of the molecules with crossbeta structure, as shown by ... the enhanced activation of tPA and plasminogen | In this way, a potent activator of tPA was obtained | at high glucagon concentration, also native glucagon has some tPA activating potential | After cyclic thermal misfolding, however, signals representative for crossbeta structure are far more pronounced with denatured OVA | Recombinant β2GPI, but not β2GPI purified from fresh plasma stimulate tPA-mediated conversion of Plg to plasmin | also native albumin enhanced ThT fluorescence to some extent, but this was not reflected by stimulation of tPA activation | Exposure of human β2gpi to cardiolipin renders the mixture with tPA/plasminogen activating properties
